Experimental data from US20260049134A1 (UNIVERSITY OF FLORIDA RESEARCH FOUNDATION, published 2026).

T1: PTPRG-Fc (ECD of human PTPRG, aa 20-736, fused to human Fc gamma 1) (human, UniProt P23470 20-736)
T1 construct: Made in-house in Expi293 cells; Used in ELISA and SPR; also called recombinant PTPRG-Fc; PTRPG; not shown: human IgG1 Fc (Fc gamma 1) after the hinge
T1 sequence: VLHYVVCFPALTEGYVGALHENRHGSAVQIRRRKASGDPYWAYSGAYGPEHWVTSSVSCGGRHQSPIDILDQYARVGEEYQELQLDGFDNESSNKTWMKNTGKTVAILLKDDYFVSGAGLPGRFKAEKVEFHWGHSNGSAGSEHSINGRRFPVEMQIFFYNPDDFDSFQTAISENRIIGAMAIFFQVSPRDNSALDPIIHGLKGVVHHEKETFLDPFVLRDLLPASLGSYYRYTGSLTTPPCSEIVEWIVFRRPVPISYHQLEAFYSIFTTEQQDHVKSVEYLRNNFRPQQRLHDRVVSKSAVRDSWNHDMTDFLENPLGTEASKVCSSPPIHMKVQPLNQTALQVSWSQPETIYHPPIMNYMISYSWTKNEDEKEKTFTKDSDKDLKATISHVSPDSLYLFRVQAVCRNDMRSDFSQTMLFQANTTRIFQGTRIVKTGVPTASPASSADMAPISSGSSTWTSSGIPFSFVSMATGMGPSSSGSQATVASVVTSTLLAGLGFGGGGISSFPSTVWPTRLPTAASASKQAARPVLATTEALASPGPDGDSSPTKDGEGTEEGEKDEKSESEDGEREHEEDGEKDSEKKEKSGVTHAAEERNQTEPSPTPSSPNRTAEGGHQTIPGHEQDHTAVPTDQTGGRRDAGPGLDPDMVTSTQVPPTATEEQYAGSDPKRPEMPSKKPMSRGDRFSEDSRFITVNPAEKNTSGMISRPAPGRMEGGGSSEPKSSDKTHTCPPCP


Biological target: T1, PTPRG-Fc (ECD of human PTPRG, aa …)
Test: SPR, Biacore X100; PTPRG-Fc captured by anti-human Fc on CM5, Fab injected; mean of triplicates (SD)
Method: A Biacore X100 instrument was used to determine the monovalent affinities of the C-1 cluster of Fabs for recombinant PTPRG-Fc, as previously described. […] Each experiment was repeated in triplicate. Rate constants (kₒₙ, koff, and Kd) were calculated using the Biacore evaluation software (Cytiva).

| Kd [nM] | koff [s⁻¹] | kon [M⁻¹ s⁻¹] | Binder |
| --- | --- | --- | --- |
| 0.65 | 0.000367 | 566000 | HW-25 Fab (chimeric rabbit/human, His-tagged) (Fab, V domains shown, Monovalent Fab: rbVH-huCH1 and rbVL-huCL, His-tagged, made in E. coli from pET11a) VH: QSLEESGGRLVTPGTPLTLTCTVSGFSLSSYAMGWVRQAPGKGLEWIGIIDSRGSTYYATWAKGRFTISKTSTTVDLKITSPTTEDTATYFCAREDSYYYDSFNLWGPGTLVTVSS VL: SFVLTQPASVQVNLGQTVSLTCTADTLSRRYASWYQQKPGQAPVLLIYRDTSRPSGVPDRFSGSSSGNTATLTISGAQAGDEADYYCATSDGSGSSYQCVFGGGTQLTVT |
| 19.1 | 0.0153 | 826000 | HW-70 Fab (chimeric rabbit/human, His-tagged) (Fab, V domains shown, Monovalent Fab: rbVH-huCH1 and rbVL-huCL, His-tagged, made in E. coli from pET11a) VH: QSLEESGGRLVTPGTPLTLTCTVSGFSLSSNAMSWVRQAPGKGLEWIGTIDGYGYTYYASWAKGRFTVSKTSTTVDLKITSPTTEDTATYFCAREIYLGSNFWGPGTLVTISS VL: SFVLTQPASVQVNLGQTVSLTCTADTLSRRYASWYQQKPGQAPVLLIYRDTSRPSGVPDRFSGSSSGNTATLTISGAQAGDEADYYCATADGSGSSYQFVFGGGTQLTVT |
| 28.9 | 0.00429 | 149000 | HW-42 Fab (chimeric rabbit/human, His-tagged) (Fab, V domains shown, Monovalent Fab: rbVH-huCH1 and rbVL-huCL, His-tagged, made in E. coli from pET11a) VH: QSVKESEGGLFKPADTLTLTCTVSGFSLSSNEISWVRQAPGEGLEYIGIIDTGGRAYYAVWARSRSTITRNTNLNTVTLKMTSLTAADTATYFCARGGVDTEWYAFSSWGPGTLVTVPS VL: SFVLTQPASVQVNLGQTVSLTCTADTLSRRYASWYQQKPGQAPVLLIFRDTSRPSGVPDRFSGSSSGDTATLTISGAQAGDEADYYCATSDGSGSNYQYVFGGGTQLTVT |
| 9.34 | 0.00158 | 169000 | HW-17 Fab (chimeric rabbit/human, His-tagged) (Fab, V domains shown, Monovalent Fab: rbVH-huCH1 and rbVL-huCL, His-tagged, made in E. coli from pET11a) VH: QSLGESRGRLVTPDETLTLTCTVSGIDLSSNAMSWVRQAPGEGLEWIGTINTGGRAYYASWAKGRFTISRTSTTVDLKMTSLTTEDTATYFCARERYSDGRAYDIWGPGTLVTISS VL: SFVLTQPASVQVNLGQTVSLTCTADTLSRRYASWYQQKPGQAPVLLIYTDSNRPSGIPDRFSGSSSGNTATLTISGAQAGDEADYYCATDDGSGSIYQYVFGGGTQLTVT |
| 2.54 | 0.000482 | 195000 | HW-1 Fab (chimeric rabbit/human, His-tagged) (Fab, V domains shown, Monovalent Fab: rbVH-huCH1 and rbVL-huCL, His-tagged, made in E. coli from pET11a) VH: QSLEESGGGLFKPTDTLTLTCTASGFSLGSSYAISWVRQAPGKELEWIGTIDSGRAYYARWAKSRSTITRNTNENTVTLKMTSLTAADTATYFCARDLIPTYSQDIWGPGTLVTISS VL: SFVLTQPASVQVNLGQTVSLTCTADTLSRRYASWYQQKPGQAPVLLIYRDTSRPSGVPDRFSGSSSGNTATLTISGAQAGDEADYYCATSDGSGNSYQYVFGGGTQLTVT |
